Assay in all cases: EMSA; EMSA: 20 mM Tris-HCl pH 7.6, 80 mM NaCl, 1 mM DTT, 1 mM EDTA, 1.5% glycerol, 200 ng/ml poly dI/dC, 50 ug/ml BSA, 10 nM DNA; 6% native PAGE in 50 mM Tris-borate
One data set addresses T1, QM1 Rad9A 1-266 (Homo sapiens, UniProt Q99638 1-266, K11A;K15A;R22A;K78A).
T1 sequence: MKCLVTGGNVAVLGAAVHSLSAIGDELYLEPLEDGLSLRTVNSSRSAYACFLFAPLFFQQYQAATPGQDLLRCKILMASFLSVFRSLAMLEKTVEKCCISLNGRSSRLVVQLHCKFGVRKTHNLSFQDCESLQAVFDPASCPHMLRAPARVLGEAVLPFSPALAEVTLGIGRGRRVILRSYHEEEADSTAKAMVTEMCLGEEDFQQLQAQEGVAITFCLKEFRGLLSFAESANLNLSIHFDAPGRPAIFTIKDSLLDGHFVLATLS
To be noted: protein: recombinant; tags: His; label: 5'-fluorescein (6-carboxyfluorescein) on HC40; blunt.

The target in the next data set is T2, TM Rad9A 1-266 (Homo sapiens, UniProt Q99638 1-266, K11A;K15A;R22A).
T2 sequence: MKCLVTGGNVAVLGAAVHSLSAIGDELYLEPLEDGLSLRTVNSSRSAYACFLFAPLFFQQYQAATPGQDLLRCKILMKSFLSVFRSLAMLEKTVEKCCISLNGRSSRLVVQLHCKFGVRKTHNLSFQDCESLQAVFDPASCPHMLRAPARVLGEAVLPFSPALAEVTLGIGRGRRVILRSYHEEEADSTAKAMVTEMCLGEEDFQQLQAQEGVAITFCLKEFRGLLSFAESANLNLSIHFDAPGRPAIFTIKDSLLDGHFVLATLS
To be noted: protein: recombinant; tags: His; label: 5'-fluorescein (6-carboxyfluorescein) on HC40; blunt.

The next data set has as its target T3, K220A Rad9A 94-266 (Homo sapiens, UniProt Q99638 94-266, K220A).
T3 sequence: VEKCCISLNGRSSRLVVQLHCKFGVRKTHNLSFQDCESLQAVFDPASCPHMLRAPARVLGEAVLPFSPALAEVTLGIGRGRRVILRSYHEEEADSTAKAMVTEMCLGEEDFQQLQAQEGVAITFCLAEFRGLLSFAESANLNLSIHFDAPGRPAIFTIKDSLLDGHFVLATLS
The note with it: protein: recombinant; tags: His; label: 5'-fluorescein (6-carboxyfluorescein) on HC40; blunt.

The target in another data set is T4, LD Rad9A 94-266 (Homo sapiens, UniProt Q99638 94-266, del160-163).
T4 sequence: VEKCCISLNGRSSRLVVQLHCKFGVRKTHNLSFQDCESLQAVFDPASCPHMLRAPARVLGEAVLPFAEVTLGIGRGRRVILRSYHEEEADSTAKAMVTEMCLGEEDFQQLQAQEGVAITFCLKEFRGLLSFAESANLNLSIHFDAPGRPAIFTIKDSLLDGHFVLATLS
To be noted: protein: recombinant; tags: His; label: 5'-fluorescein (6-carboxyfluorescein) on HC40; blunt.

A further data set addresses T5, WT Rad9A 1-266 (Homo sapiens, UniProt Q99638 1-266).
T5 sequence: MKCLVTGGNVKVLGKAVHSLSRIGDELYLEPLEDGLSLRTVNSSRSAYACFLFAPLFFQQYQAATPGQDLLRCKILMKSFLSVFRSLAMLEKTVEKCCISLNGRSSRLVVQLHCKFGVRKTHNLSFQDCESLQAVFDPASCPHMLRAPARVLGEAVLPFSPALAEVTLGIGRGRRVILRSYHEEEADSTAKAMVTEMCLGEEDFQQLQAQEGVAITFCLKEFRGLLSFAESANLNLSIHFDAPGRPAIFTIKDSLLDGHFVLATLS
To be noted: protein: recombinant; tags: N-terminal His; label: 5'-fluorescein (6-carboxyfluorescein) on HC40; blunt.

The target in another data set is T6, WT Rad9A 94-266 (Homo sapiens, UniProt Q99638 94-266).
T6 sequence: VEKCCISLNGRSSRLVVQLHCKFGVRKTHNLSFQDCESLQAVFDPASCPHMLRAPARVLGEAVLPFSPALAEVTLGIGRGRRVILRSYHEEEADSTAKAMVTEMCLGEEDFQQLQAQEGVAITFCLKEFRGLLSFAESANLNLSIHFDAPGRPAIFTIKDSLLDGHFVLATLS
To be noted: protein: recombinant; tags: His; label: 5'-fluorescein (6-carboxyfluorescein) on HC40; blunt.

For another data set, the target named is T7, TM Rad9A 1-133 (Homo sapiens, UniProt Q99638 1-133, K11A;K15A;R22A).
T7 sequence: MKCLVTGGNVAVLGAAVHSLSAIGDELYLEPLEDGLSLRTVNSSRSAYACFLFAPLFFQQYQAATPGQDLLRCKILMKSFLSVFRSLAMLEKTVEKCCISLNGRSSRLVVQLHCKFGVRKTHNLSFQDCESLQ
To be noted: protein: recombinant; tags: His; label: 5'-fluorescein (6-carboxyfluorescein) on HC40; blunt.

A further data set deals with T8, WT Rad9A 134-266 (Homo sapiens, UniProt Q99638 134-266).
T8 sequence: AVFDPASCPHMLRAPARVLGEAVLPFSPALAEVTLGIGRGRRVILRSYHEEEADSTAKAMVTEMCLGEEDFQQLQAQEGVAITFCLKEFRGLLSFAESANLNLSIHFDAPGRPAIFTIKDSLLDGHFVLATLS
To be noted: protein: recombinant; tags: N-terminal His; label: 5'-fluorescein (6-carboxyfluorescein) on HC40; blunt.

The target in the next data set is T9, R223A Rad9A 94-266 (Homo sapiens, UniProt Q99638 94-266, R223A).
T9 sequence: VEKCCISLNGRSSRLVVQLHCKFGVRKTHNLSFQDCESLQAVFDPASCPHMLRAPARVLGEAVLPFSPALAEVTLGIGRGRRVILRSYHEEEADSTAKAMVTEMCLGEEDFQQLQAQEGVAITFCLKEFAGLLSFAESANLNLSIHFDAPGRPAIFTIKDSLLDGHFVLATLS
To be noted: protein: recombinant; tags: His; label: 5'-fluorescein (6-carboxyfluorescein) on HC40; blunt.

The next data set deals with T10, DM Rad9A 94-266 (Homo sapiens, UniProt Q99638 94-266, R150A;R223A).
T10 sequence: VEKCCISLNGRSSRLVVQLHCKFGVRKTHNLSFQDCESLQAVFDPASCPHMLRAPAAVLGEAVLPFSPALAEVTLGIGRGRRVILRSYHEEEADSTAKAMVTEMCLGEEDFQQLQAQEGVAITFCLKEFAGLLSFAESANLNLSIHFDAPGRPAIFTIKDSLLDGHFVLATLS
The note with it: protein: recombinant; tags: His; label: 5'-fluorescein (6-carboxyfluorescein) on HC40; blunt.

A further data set has as its target T11, WT Rad9A 1-133 (Homo sapiens, UniProt Q99638 1-133).
T11 sequence: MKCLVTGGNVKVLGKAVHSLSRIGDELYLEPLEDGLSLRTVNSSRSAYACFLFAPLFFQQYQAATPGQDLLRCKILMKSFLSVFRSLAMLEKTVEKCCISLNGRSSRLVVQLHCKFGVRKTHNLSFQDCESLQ
The note with it: protein: recombinant; tags: N-terminal His; label: 5'-fluorescein (6-carboxyfluorescein) on HC40; blunt.

B1: HC40/HG40 (dsDNA)
DNA 1: CCGAGGAATTCGCCTTCTGCTCCATAGCCACTGGTTGTAG
DNA 2: CTACAACCAGTGGCTATGGAGCAGAAGGCGAATTCCTCGG
On to B1, for which the equilibrium dissociation constant (Kd) was found to be 1770 ± 790 nM with QM1 Rad9A 1-266; 120 ± 30 nM in the data set with TM Rad9A 1-266; 6400 ± 750 nM with K220A Rad9A 94-266; 6120 ± 1270 nM with LD Rad9A 94-266; 50 ± 10 nM in the data set with WT Rad9A 1-266; 1500 ± 400 nM in the data set with WT Rad9A 94-266. Also, the Kd in the data set with TM Rad9A 1-133 came out at 7740 ± 680 nM; with WT Rad9A 134-266, 3000 ± 620 nM; with R223A Rad9A 94-266 it was 1170 ± 690 nM; with DM Rad9A 94-266, 7790 ± 880 nM; in the data set with WT Rad9A 1-133, 820 ± 150 nM.
